# According to paper doi:10.1101/2021.02.08.430375v1:
# B1: Lpd (dihydrolipoamide dehydrogenase; lipoamide dehydrogenase) (Escherichia coli K-12) (protein)
# chain: MSTEIKTQVVVLGAGPAGYSAAFRCADLGLETVIVERYNTLGGVCLNVGCIPSKALLHVAKVIEEAKALAEHGIVFGEPKTDIDKIRTWKEKVINQLTGGLAGMAKGRKVKVVNGLGKFTGANTLEVEGENGKTVINFDNAIIAAGSRPIQLPFIPHEDPRIWDSTDALELKEVPERLLVMGGGIIGLEMGTVYHALGSQIDVVEMFDQVIPAADKDIVKVFTKRISKKFNLMLETKVTAVEAKEDGIYVTMEGKKAPAEPQRYDAVLVAIGRVPNGKNLDAGKAGVEVDDRGFIRVDKQLRTNVPHIFAIGDIVGQPMLAHKGVHEGHVAAEVIAGKKHYFDPKVIPSIAYTEPEVAWVGLTEKEAKEKGISYETATFPWAASGRAIASDCADGMTKLIFDKESHRVIGGAIVGTNGGELLGEIGLAIEMGCDAEDIALTIHAHPTLHESVGLAAEVFEGSITDLPNPKAKKK
# Substrate: NC(=O)CCCC[C@@H](S)CCS
# Assay: purified protein
# Settings: 100 mM Na phosphate, 100 mM KCl, 8 mM TCEP pH 7.6, room temperature
protein,measurement,value
B1,Km,180 ± 20 µM
